Measured values published in patent US20240182536A1.
“And” between values parts separate entries of the source, which are not always exact repeats. Equal values may be shown once. Read-outs that look alike come from different tables or passages of the source. Values belong to the substance of their own block, whether it stands above or below them.

Assays:
Assay in all cases: cell-based or functional assay
[1] = molecular target: T1, IL-18 receptor (IL-18Rα and IL-18Rβ) (UniProt Q13478)
T1 sequence (looked up) 1: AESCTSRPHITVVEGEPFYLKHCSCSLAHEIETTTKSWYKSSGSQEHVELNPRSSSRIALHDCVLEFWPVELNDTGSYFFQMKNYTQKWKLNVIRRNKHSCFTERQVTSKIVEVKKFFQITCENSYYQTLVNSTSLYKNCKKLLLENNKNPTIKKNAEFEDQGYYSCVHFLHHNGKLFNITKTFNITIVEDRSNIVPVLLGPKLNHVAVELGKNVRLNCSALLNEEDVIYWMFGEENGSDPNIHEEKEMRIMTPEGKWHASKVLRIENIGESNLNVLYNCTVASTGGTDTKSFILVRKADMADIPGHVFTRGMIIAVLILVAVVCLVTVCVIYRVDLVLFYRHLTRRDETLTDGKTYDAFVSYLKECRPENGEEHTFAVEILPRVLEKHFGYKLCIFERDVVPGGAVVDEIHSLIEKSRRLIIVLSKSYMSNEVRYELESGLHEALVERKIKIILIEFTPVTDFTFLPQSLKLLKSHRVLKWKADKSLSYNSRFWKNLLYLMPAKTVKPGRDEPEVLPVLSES
T1 sequence (looked up) 2: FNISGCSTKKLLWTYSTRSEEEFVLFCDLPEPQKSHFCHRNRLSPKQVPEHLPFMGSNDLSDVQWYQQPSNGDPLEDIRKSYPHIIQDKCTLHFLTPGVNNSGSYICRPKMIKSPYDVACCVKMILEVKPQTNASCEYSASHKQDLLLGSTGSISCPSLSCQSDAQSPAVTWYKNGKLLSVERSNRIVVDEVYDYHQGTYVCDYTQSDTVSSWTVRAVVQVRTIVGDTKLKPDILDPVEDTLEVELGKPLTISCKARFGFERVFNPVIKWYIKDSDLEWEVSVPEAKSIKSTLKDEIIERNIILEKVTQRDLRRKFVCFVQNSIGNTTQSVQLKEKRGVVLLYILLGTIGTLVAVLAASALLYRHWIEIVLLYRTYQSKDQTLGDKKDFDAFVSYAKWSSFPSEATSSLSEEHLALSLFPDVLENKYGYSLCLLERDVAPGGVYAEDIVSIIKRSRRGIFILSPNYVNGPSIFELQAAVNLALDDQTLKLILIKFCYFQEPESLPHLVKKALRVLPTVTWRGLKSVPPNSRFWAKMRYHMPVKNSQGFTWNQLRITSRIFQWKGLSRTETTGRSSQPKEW

[2] = molecular target: interleukin 18 binding protein (IL-18BP) (UniProt O95998)
interleukin 18 binding protein (IL-18BP), sequence (O95998 31-194 limits assumed): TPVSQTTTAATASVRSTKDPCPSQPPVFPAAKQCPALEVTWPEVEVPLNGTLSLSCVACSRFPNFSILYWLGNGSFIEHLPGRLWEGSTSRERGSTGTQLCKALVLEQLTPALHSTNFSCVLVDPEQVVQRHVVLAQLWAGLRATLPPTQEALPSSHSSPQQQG

[3] = molecular target: IL-18 receptors on HEK-Blue IL-18 reporter cells (UniProt Q13478)
[4] = molecular target: human IL-18 binding protein (human) (UniProt O95998)
human IL-18 binding protein (human), sequence (O95998 31-194 limits assumed): as above

[5] = molecular target: IL-18 receptors on HEK-Blue IL-18 reporter cells (UniProt Q13478); remark: listed apart in the source
[6] = molecular target: human IL-18 binding protein (human) (UniProt O95998); remark: listed apart in the source
[7] = molecular target: IL-18 binding protein (IL-18BP) (UniProt O95998)
IL-18 binding protein (IL-18BP), sequence (O95998 31-194 limits assumed): as above

WT-hIL-18-monoFc (Fc fusion), sequence (chain): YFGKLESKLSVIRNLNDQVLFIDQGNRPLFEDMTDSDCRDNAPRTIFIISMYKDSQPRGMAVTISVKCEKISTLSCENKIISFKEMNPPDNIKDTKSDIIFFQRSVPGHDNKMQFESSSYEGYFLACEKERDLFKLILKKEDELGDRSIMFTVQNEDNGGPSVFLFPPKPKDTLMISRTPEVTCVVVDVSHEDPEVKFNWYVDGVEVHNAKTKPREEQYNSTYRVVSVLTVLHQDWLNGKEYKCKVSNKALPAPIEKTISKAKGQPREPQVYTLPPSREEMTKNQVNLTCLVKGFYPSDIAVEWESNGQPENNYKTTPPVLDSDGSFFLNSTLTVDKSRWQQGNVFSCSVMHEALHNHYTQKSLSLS
WT-monoFc (Fc fusion), sequence (chain): as above
WT-monoFc (wild-type human IL-18 linked to monoFc) (Fc fusion), sequence (chain): as above

HEK-blue EC50 (pM) - IL-18BP [3]: 0.36 pM | HEK-blue EC50 (pM) + 300 nM IL-18BP [4]: 4.25 pM
Substance: G3T/M60K-HSA-his-avi

EC50 (pM), PBMC IFN gamma assay [1]: 85.6 pM | EC50 (pM), PBMC IFN gamma assay, + 300 nM BP [2]: 64.1 pM
Substance: hIL18(G3P, E6K, D54Y, S55P, T63S, N91S, R104Q, Q154R)-monoFc (Fc fusion)

HEK-blue EC50 (pM) - BP [3]: 0.52 pM | HEK-blue EC50 (pM) + 300 nM BP [2]: > 500 pM | Ratio [2]: 947
Substance: WT-monoFc (Fc fusion)

HEK-blue EC50 (pM) - IL-18BP [3]: 0.19 pM | HEK-blue EC50 (pM) + 300 nM IL-18BP [4]: 3.83 pM
Substance: G3V/M60K-HSA-his-avi

Further lines, the substance ahead of its results:

Substance: hIL18(G3P, E6K, D54Y, S55P, T63S, N91S, R104Q)-monoFc (Fc fusion)
EC50 (pM), PBMC IFN gamma assay [1]: 19.5 pM | EC50 (pM), PBMC IFN gamma assay, + 300 nM BP [2]: 74.5 pM

Substance: G3T/M60K-monoFc (Fc fusion)
HEK-blue EC50 (pM) - IL-18BP [3]: 0.21 pM | HEK-blue EC50 (pM) + 300 nM IL-18BP [4]: 1.78 pM

Substance: G3V/M60K-monoFc (Fc fusion)
HEK-blue EC50 (pM) - IL-18BP [3]: 0.15 pM | HEK-blue EC50 (pM) + 300 nM IL-18BP [4]: 1.57 pM

Substance: G3T/E6K/K53A-monoFc (Fc fusion)
HEK-blue EC50 (pM) - IL-18BP [3]: 0.06 pM | HEK-blue EC50 (pM) + 300 nM IL-18BP [4]: 2.81 pM

Substance: WT-hIL-18-monoFc (Fc fusion)
HEK-blue EC50 (pM) - BP [5]: 0.495 pM | HEK-blue EC50 (pM) + 1000 nM BP [6]: 99.8 pM | HEK-Blue activity, No BP, DF-10000 [3]: 2.24 | HEK-Blue activity, No BP, DF-100,000 [3]: 2.08 | HEK-Blue activity, No BP, DF-1,000,000 [3]: 1.75 | HEK-blue EC50 (pM) - BP [3]: 0.458 pM | HEK-blue EC50 (pM) - IL-18BP [3]: 0.29 pM | HEK-Blue activity, +100 nM BP, DF-10000 [4]: 0.92 | HEK-Blue activity, +100 nM BP, DF-100,000 [4]: 0.29 | HEK-Blue activity, +100 nM BP, DF-1,000,000 [4]: 0.24 | HEK-blue EC50 (pM) + 300 nM BP [4]: 221 pM | HEK-blue EC50 (pM) + 300 nM IL-18BP [4]: > 500 pM | Ratio (-BP/+BP), DF-10000 [4]: 2.45 | Ratio (-BP/+BP), DF-100,000 [4]: 7.16 | Ratio (-BP/+BP), DF-1,000,000 [4]: 7.32

Substance: WT-monoFc (wild-type human IL-18 linked to monoFc) (Fc fusion)
EC50 (pM) - BP, HEK-blue re-screening [1]: 0.51 pM and 0.43 pM and 0.6 pM | EC50 (pM), PBMC IFN gamma assay [1]: 96.8 pM | EC50 (pM), PBMC IFN gamma assay, + 300 nM BP [2]: 611 pM | Ratio (HEK-blue EC50, + 100 nM BP against - BP) [2]: 520 and 360 and 338

Substance: wt-monoFc (from UniProt Q14116 37-193; P01857 119-327) (Fc fusion)
Activity, No BP, DF-100000 [3]: 1.94 | Activity, No BP, DF-500000 [3]: 1.43 | Activity, No BP, DF-2500000 [3]: 0.77 | Activity, +100 nM BP, DF-1000002 [7]: 0.11 | Activity, +100 nM BP, DF-5000003 [7]: 0.08 | Activity, +100 nM BP, DF-25000004 [7]: 0.07 | Ratio (-BP/+BP), DF-1000005 [7]: 17.4 | Ratio (-BP/+BP), DF-5000006 [7]: 17.4 | Ratio (-BP/+BP), DF-25000007 [7]: 10.5

Substance: hDR-18-monoFc (Fc fusion)
Activity, No BP, DF-100000 [3]: 2 | Activity, No BP, DF-500000 [3]: 1.91 | Activity, No BP, DF-2500000 [3]: 1.49 | HEK-Blue activity, No BP, DF-10000 [3]: 2.19 | HEK-Blue activity, No BP, DF-100,000 [3]: 2.26 | HEK-Blue activity, No BP, DF-1,000,000 [3]: 2.16 | HEK-Blue activity, +100 nM BP, DF-10000 [4]: 2.21 | HEK-Blue activity, +100 nM BP, DF-100,000 [4]: 2.19 | HEK-Blue activity, +100 nM BP, DF-1,000,000 [4]: 2.1 | Ratio (-BP/+BP), DF-10000 [4]: 0.99 | Ratio (-BP/+BP), DF-100,000 [4]: 1.03 | Ratio (-BP/+BP), DF-1,000,000 [4]: 1.03 | Activity, +100 nM BP, DF-1000002 [7]: 2.01 | Activity, +100 nM BP, DF-5000003 [7]: 1.95 | Activity, +100 nM BP, DF-25000004 [7]: 1.59 | Ratio (-BP/+BP), DF-1000005 [7]: 0.99 | Ratio (-BP/+BP), DF-5000006 [7]: 0.98 | Ratio (-BP/+BP), DF-25000007 [7]: 0.93

Substance: IL-18 variant S36E, D40A, N41M, K53T, S55Y, P107S (ligand)
HEK-Blue activity, No BP, DF-10000 [3]: 0.24 | HEK-Blue activity, No BP, DF-100,000 [3]: 0.11 | HEK-Blue activity, No BP, DF-1,000,000 [3]: 0.09 | HEK-Blue activity, +100 nM BP, DF-10000 [2]: 0.25 | HEK-Blue activity, +100 nM BP, DF-100,000 [2]: 0.11 | HEK-Blue activity, +100 nM BP, DF-1,000,000 [2]: 0.09 | Ratio (-BP/+BP), DF-10000 [2]: 0.97 | Ratio (-BP/+BP), DF-100,000 [2]: 1.02 | Ratio (-BP/+BP), DF-1,000,000 [2]: 1.01
